# Measurements published in article PMC5988928, “An alkaline and surfactant-tolerant lipase from Trichoderma lentiforme ACCC30425 with high application potential in the detergent industry” (AMB Express, 2018).
# B1: TlLipA (Trichoderma sp.) (protein)
# chain: AQGQVNVTIPSGNIMGSSVEDVEFFKGIPFADPPIGELRFKPPQTLSTHLGDFDATKKAKLCSQGPVFTVSSNPQVAPFALKAERESFGNPVPPENESEDCLTVTIHRPAGTEAGDDLPVLFYIFGGGFVIGGTSAAINDPTVLVQTGIDLGKPFIFAAVNYRVGGWGFMPGAEILRDGSANAGLLDQRKGLEWVADNIAAFGGDPSKVTIWGQSSGSISVFEQLVLYDGDNTYNGNPLFRGAIMNSGSVTPVDPVDSAKPQALYDHVVRVANCEGDDSLDCLRRLPNDHFAAAANSIPGLISYESLALSYLPRPDGEVLTASPHVLAREGKFPAVPMILASQEDEGTLFSFFQGDMGTTDIITDYLNSLYFTNTDRSLVKSFVETYSERLEDGSPYRTGDSKDLFYYPGKKRIASILGDIVFTLVRRWTLETIAEVSPETALWSSFASYNYKPLDIFGLGTKHGSDTEVFFARNNSDFPSITGRTYYINFVYNGDPNEGLDVNVTWLGWKEDRQLLWYNATENGYLADNFRNGSYNFIKEHIDSLIF
# notes: secreted from Pichia pastoris GS115 (pPIC9, alpha-factor signal), no tag told; N-terminus AQGQVNVTIP from primer
# Columns and labels:
# Assay in all cases: purified protein
# Format in all cases: biochemical, Trichoderma sp.
# Conditions in all cases: pH 9.5, 50 °C, 10 min, Tris-HCl
# purified protein [1] = substrate: CCCC(=O)Oc1ccc([N+](=O)[O-])cc1
# purified protein [2] = substrate: CCCCCCCC(=O)Oc1ccc([N+](=O)[O-])cc1
# purified protein [3] = substrate: CCCCCCCCCC(=O)Oc1ccc([N+](=O)[O-])cc1
# purified protein [4] = substrate: CCCCCCCCCCCC(=O)Oc1ccc([N+](=O)[O-])cc1
# purified protein [5] = substrate: CCCCCCCCCCCCCC(=O)Oc1ccc([N+](=O)[O-])cc1
# purified protein [6] = substrate: CCCCCCCCCCCCCCCC(=O)Oc1ccc([N+](=O)[O-])cc1
protein,measurement,setting,value
B1,Km,purified protein [1],400 ± 70 µM
same,Vmax,purified protein [1],12.2 µmol/min/mg
same,kcat,purified protein [1],12.2 ± 0.8 s⁻¹
same,kcat/Km,purified protein [1],30700 M⁻¹ s⁻¹
same,Km,purified protein [2],670 ± 230 µM
same,Vmax,purified protein [2],27.3 µmol/min/mg
same,kcat,purified protein [2],27.4 ± 4.4 s⁻¹
same,kcat/Km,purified protein [2],41000 M⁻¹ s⁻¹
same,Km,purified protein [3],350 ± 70 µM
same,Vmax,purified protein [3],12.5 µmol/min/mg
same,kcat,purified protein [3],12.5 ± 0.7 s⁻¹
same,kcat/Km,purified protein [3],35800 M⁻¹ s⁻¹
same,Km,purified protein [4],1590 ± 420 µM
same,Vmax,purified protein [4],16.8 µmol/min/mg
same,kcat,purified protein [4],16.8 ± 2.4 s⁻¹
same,kcat/Km,purified protein [4],10600 M⁻¹ s⁻¹
same,Km,purified protein [5],3290 ± 1210 µM
same,Vmax,purified protein [5],4.3 µmol/min/mg
same,kcat,purified protein [5],4.3 ± 1 s⁻¹
same,kcat/Km,purified protein [5],1320 M⁻¹ s⁻¹
same,Km,purified protein [6],4220 ± 1280 µM
same,Vmax,purified protein [6],4.8 µmol/min/mg
same,kcat,purified protein [6],4.8 ± 1 s⁻¹
same,kcat/Km,purified protein [6],1140 M⁻¹ s⁻¹
